Experimental data from patent US20140017764.

Legend:
[1] = system: T1, HCV-P preferred substrate construct (DEMEECASHL)
T1 sequence: DEMEECASHL

[2] = target: T2, TENLYFESGTRRW peptide substrate
T2 chain: TENLYFESGTRRW

[3] = target: T3, TENLYFHSGTRRW peptide substrate
T3 chain: TENLYFHSGTRRW

[4] = target: T4, Aga2 substrate fusion polypeptide with HCV-P counter selection sequence and TEV-P selection substrate ENLYFQS
T4 chain: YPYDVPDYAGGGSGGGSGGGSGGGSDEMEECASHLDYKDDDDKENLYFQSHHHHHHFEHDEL

[5] = target: T5, human granzyme K preferred substrate construct (CGYGPKKKRKVGG)
T5 chain: CGYGPKKKRKVGG

[6] = target: human AblTK preferred substrate construct

hepatitis C protease (HCV-P)
YESS two-color FACS (PE / FITC) [1]: displayed relatively similar PE but low FITC signals by FACS compared to the controls lacking proteases

B1: TEV-PE10, purified (protein)
chain: HHHHHHSLFKGPRDYNPISSTICHLTNESDGHTTSLYGIGFGPFIITNKHLFRRNNGTLLVQSLHGVFKVKNTTTLQQHLIDGRDMIIIRMPKDFPPFPQKLKFREPQREERICLVTTNFQTKRMSSMVSDTSCTFPSSDGIFWKHWIQTKRGQCGSPLVSTRDGFIVGIHSASNFANTNKYFTSVPKNFMELLTNQEAQQWVSGWRLNADSVLWGGHKVFIPKPEEPFQPVKEATQLMN
KM [2]: 12.8 µM | fold higher kcat/KM on TENLYFESGTRRW versus […] [2]: 13-fold higher kcat/KM value | kcat [2]: 0.0255 s⁻¹ | kcat/KM [2]: 2060 M⁻¹ s⁻¹ | reversal of substrate specificity compared to TEV-P [2]: 5000-fold reversal of substrate specificity compared to TEV-P

B2: TEV-PH21, purified (protein)
chain: HHHHHHSLFKGPRDYNPISSAICHLTNESDGHTTSLYGIGFGPFIITNKHLFRRNNGTLLVQSLHGVFKVKNTTTLQQHLIDGRDMIIIRMPKDFPPFPQKLKFREPQREERICLVTTNFQTKSMSSMVSDTSCTFPSSDGIFWKHWIQAKPGQCGCPLVSTRDGFIVGIHTAANFANTNNYFTSVPKNFMELLTNQEAQQWVSGWRLNADSVLWGGHKVFMPKPEEPFQPVKEATQLMN
KM [3]: 250 µM | fold higher kcat/KM on TENLYFHSGTRRW versus […] [3]: 7 fold | kcat [3]: 0.0375 s⁻¹ | kcat/KM [3]: 150 M⁻¹ s⁻¹ | reversal of substrate specificity compared to TEV-P [3]: 1100-fold reversal of substrate specificity compared to TEV-P

B3: wild-type TEV protease (TEV-P), purified (protein)
chain: HHHHHHSLFKGPRDYNPISSTICHLTNESDGHTTSLYGIGFGPFIITNKHLFRRNNGTLLVQSLHGVFKVKNTTTLQQHLIDGRDMIIIRMPKDFPPFPQKLKFREPQREERICLVTTNFQTKSMSSMVSDTSCTFPSSDGIFWKHWIQTKDGQCGSPLVSTRDGFIVGIHSASNFTNTNNYFTSVPKNFMELLTNQEAQQWVSGWRLNADSVLWGGHKVFMPKPEEPFQPVKEATQLMN
KM [2]: 1930 µM | fold by which kcat/KM on […] exceeds kcat/KM on TENLYFESGTRRW [2]: 375-fold | kcat [2]: 0.00609 s⁻¹ | kcat/KM [2]: 3.14 M⁻¹ s⁻¹ | KM [3]: 640 µM | fold by which kcat/KM on […] exceeds kcat/KM on TENLYFHSGTRRW [3]: 150-fold | kcat [3]: 0.00493 s⁻¹ | kcat/KM [3]: 7.55 M⁻¹ s⁻¹

B4: TEV-P anchored with a C-terminal ER retention sequence, expressed in the yeast ER (protein)
chain: SLFKGPRDYNPISSTICHLTNESDGHTTSLYGIGFGPFIITNKHLFRRNNGTLLVQSLHGVFKVKNTTTLQQHLIDGRDMIIIRMPKDFPPFPQKLKFREPQREERICLVTTNFQTKSMSSMVSDTSCTFPSSDGIFWKHWIQTKDGQCGSPLVSTRDGFIVGIHSASNFTNTNNYFTSVPKNFMELLTNQEAQQWVSGWRLNADSVLWGGHKVFMPKPEEPFQPVKEATQLMNFEHDEL
YESS two-color FACS (anti-FLAG-PE / anti-6xHis-FITC) [4]: high PE but low FITC fluorescence

B5: human granzyme K protease (GrK) (protein)
chain: IIGGKEVSPHSRPFMASIQYGGHHVCGGVLIDPQWVLTAAHCQYRFTKGQSPTVVLGAHSLSKNEASKQTLEIKKFIPFSRVTSDPQSNDIMLVKLQTAAKLNKHVKMLHIRSKTSLRSGTKCKVTGWGATDPDSLRPSDTLREVTVTVLSRKLCNSQSYYNGDPFITKDMVCAGDAKGQKDSCKGDSGGPLICKGVFHAIVSGGHECGVATKPGIYTLLTKKYQTWIKSNLVPPHTN
YESS two-color FACS (PE / FITC) [5]: displayed relatively similar PE but low FITC signals by FACS compared to the controls lacking proteases

B6: human Abelson tyrosine kinase (AblTK) (protein)
chain: SPNYDKWEMERTDITMKHKLGGGQYGEVYEGVWKKYSLTVAVKTLKEDTMEVEEFLKEAAVMKEIKHPNLVQLLGVCTREPPFYIITEFMTYGNLLDYLRECNRQEVNAVVLLYMATQISSAMEYLEKKNFIHRDLAARNCLVGENHLVKVADFGLSRLMTGDTYTAHAGAKFPIKWTAPESLAYNKFSIKSDVWAFGVLLWEIATYGMSPYPGIDLSQVYELLEKDYRMERPEGCPEKVYELMRACWQWNPSDRPSFAEIHQAFETMFQESSISDEVEKELGK
YESS FACS (Alexa Fluor 647 anti-phosphotyrosine / anti-6xHis-FITC) [6]: displayed relatively similar FITC but high Alexa Fluor@647 signals by FACS
